Results published in patent US20240324599A1, “PESTICIDAL ENZYMES FOR USE ON NEMATODES, INSECTS, AND MOLLUSKS” (priority 2023, published 2024).

What was measured:
Format in all cases: in vivo
winter wheat [1] = assay: Field trial: esterase on urea fertilizer, winter wheat yield; settings: for Yield: winter wheat
Description: Esterase A (EstA) from Bacillus subtilis (SEQ ID NO:254) was produced via fermentation of a recombinantly produced enzyme in Bacillus subtilis. 1 fl oz or 2 fl oz of fermentation product was applied onto 15 lb N/A (nitrogen equivalent per acre) urea fertilizer in a concrete mixer and allowed to mix for 1 minute. A urea control treatment without fermentation media was also created. urea, alone or with fermentation media was distributed across 4 small replicated plots prior to planting of winter wheat with 5 replicates of 300 ft^2 each at each site.

winter wheat [2] = assay: Field trial: esterase on MAP fertilizer, winter wheat yield and vigor; settings: for Yield: winter wheat
Description: Esterase A (EstA) from Bacillus subtilis (SEQ ID NO:254) was produced via fermentation of a recombinantly produced enzyme in Bacillus subtilis. 1 fl oz of fermentation product was applied onto 15 lb P/A (phosphate equivalent per acre) monoammonium phosphate (MAP) fertilizer in a concrete mixer and allowed to mix for 1 minute. A MAP control treatment without fermentation media was also created. MAP, alone or with fermentation media was distributed across 4 small replicated plots prior to planting of winter wheat with 5 replicates of 300 ft^2 each at each site.

corn [3] = assay: Field trial: esterase on DAP fertilizer, corn yield; settings: for Yield: corn
Description: (§1) Esterase A (EstA) from Bacillus subtilis (SEQ ID NO:254) was produced via fermentation of a recombinantly produced enzyme in Bacillus subtilis. 1, 2, or 3 fl oz of fermentation product was applied onto 67.5 lb P/A (phosphate equivalent per acre) diammonium phosphate (DAP) fertilizer in a concrete mixer, and allowed to mix for 1 minute. A DAP control treatment without fermentation media was also created. DAP, alone or with fermentation media was distributed across 4 small replicated plots each prior to planting of corn with 4 replicates of 400 ft^2 each at each site.

corn [4] = assay: Field trial: esterase on urea with or without NBPT, corn yield; settings: for Yield: corn
Description: as §1, with “135” for “67.5”, “N/A (nitrogen” for “P/A (phosphate”, “urea” for “diammonium phosphate (DAP)”, “urea” for “DAP”, “An addition treatment that contained 64 fl oz/ton N-Butyl-thiophosphoric triamide (NBPT) nitrogen stabilizer or 64 fl oz/ton NBPT nitrogen stabilizer with 3 fl oz/A EstA fermentation product was also included in the trial. Urea,” for “DAP,”, “ft2” for “ft^2”

corn [5] = assay: Field trial: esterase on MAP/DAP fertilizer, corn yield; settings: for Yield: corn, 2 fl oz/A on MAP/DAP (72 lb/A Phosphate)
Description: Esterase A (EstA) from Bacillus subtilis (SEQ ID NO:254) was produced via fermentation of a recombinantly produced enzyme in Bacillus subtilis. 2 fl oz of fermentation product was applied onto either 72 lb P/A (phosphate equivalent per acre) monoammonium phosphate (MAP) fertilizer or diammonium phosphate (DAP) fertilizer in a concrete mixer, and allowed to mix for 1 minute. A MAP/DAP control treatment without fermentation media was also created. MAP or DAP, alone or with fermentation media was distributed across 4 small replicated plots each prior to planting of corn with 5 replicates of 400 ft2 each at each site (4 site with MAP, 4 sites with DAP, combined in data in Table 52 below).

corn [6] = assay: Field trial: EstA Esterase corn seed treatment, yield; settings: text to Table 59; 2.5 fl oz/unit
Description: 2.5 fl oz/unit of EstA Esterase from recombinant Bacillus subtilis fermentation (SEQ ID NO: 254) was coated onto hybrid corn seeds treated with Fludioxinil, Azoxystrobin, mefonoxam, and thiabendaz fungicides, cyantraniliproleinsecticide, peridium 1006 polymer, and (colorant). A control treatment without esterase enzyme was also created. The seed treated with esterase and control seed was planted in replicated trials distributed across 16 replicated plots with 4 replicates of 80 ft2 each at each site.

B1: Bacillus subtilis EstA Esterase (protein, listed as Bacillus subtilis)
chain: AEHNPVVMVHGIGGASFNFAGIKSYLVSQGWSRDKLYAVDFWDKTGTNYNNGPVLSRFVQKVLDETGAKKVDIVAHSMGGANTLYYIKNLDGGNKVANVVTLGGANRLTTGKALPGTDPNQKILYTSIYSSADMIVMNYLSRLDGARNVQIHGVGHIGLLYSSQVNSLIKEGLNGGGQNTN
notes: fermentation product of recombinant Bacillus subtilis
yield versus urea control, in words (winter wheat [1]; text to Table 53, 1 or 2 fl oz on 15 lb N/A urea): increased the yield
Yield (winter wheat [1]; 1 fl oz/A on Urea (15 lb/A Nitrogen), base control 76.1): 79.6 Bu/A
Yield (winter wheat [1]; 1 fl oz/A on Urea (15 lb/A Nitrogen), base control 5117.8): 5353.2 Kg/ha
Yield (winter wheat [1]; 2 fl oz/A on Urea (15 lb/A Nitrogen), base control 76.1): 79.9 Bu/A
Yield (winter wheat [1]; 2 fl oz/A on Urea (15 lb/A Nitrogen), base control 5117.8): 5375.4 Kg/ha
vigor of young wheat seedlings, in words (winter wheat [2]; text to Table 51): increased the vigor
yield versus MAP control, in words (winter wheat [2]; text to Table 51, 1 fl oz fermentation product on 15 lb P/A MAP): increased the yield
Vigor Score (1 to 5 scale, 5 is highest) (winter wheat [2]; winter wheat seedlings, 1 fl oz/A on MAP (15 lb/A Phosphate), base control 4.0): 4.13
Yield (winter wheat [2]; 1 fl oz/A on MAP (15 lb/A Phosphate), base control 61.33): 62.82 Bu/A
Yield (winter wheat [2]; 1 fl oz/A on MAP (15 lb/A Phosphate), base control 4124.5): 4224.7 Kg/ha
Yield (corn [3]; 1 fl oz/A on DAP (67.5 lb/A Phosphate), base control 196.0): 201.8 Bu/A
Yield (corn [3]; 1 fl oz/A on DAP (67.5 lb/A Phosphate), base control 12319.5): 12684.4 Kg/ha
Yield (corn [3]; 2 fl oz/A on DAP (67.5 lb/A Phosphate), base control 196.0): 204.2 Bu/A
Yield (corn [3]; 2 fl oz/A on DAP (67.5 lb/A Phosphate), base control 12319.5): 12834.7 Kg/ha
Yield (corn [3]; 3 fl oz/A on DAP (67.5 lb/A Phosphate), base control 196.0): 202.6 Bu/A
Yield (corn [3]; 3 fl oz/A on DAP (67.5 lb/A Phosphate), base control 12319.5): 12734.7 Kg/ha
yield versus DAP control, in words (corn [3]; text to Table 54, 1, 2 or 3 fl oz on 67.5 lb P/A DAP): increased the yield
Yield (corn [4]; 1 fl oz/A on Urea (135 lb/A Nitrogen), base control 188.2): 205.0 Bu/A
Yield (corn [4]; 1 fl oz/A on Urea (135 lb/A Nitrogen), base control 11830.4): 12887.5 Kg/ha
Yield (corn [4]; 2 fl oz/A on Urea (135 lb/A Nitrogen), base control 188.2): 195.8 Bu/A
Yield (corn [4]; 2 fl oz/A on Urea (135 lb/A Nitrogen), base control 11830.4): 12309.9 Kg/ha
Yield (corn [4]; 3 fl oz/A on Urea (135 lb/A Nitrogen), base control 188.2): 195.6 Bu/A
yield versus urea control and NBPT containing treatments, in words (corn [4]; text to Table 55, 1, 2 or 3 fl oz on 135 lb N/A urea): increased the yield
Yield (corn [5]; base control 202.3): 206.6 Bu/A
Yield (corn [5]; base control 12798): 13077 Kg/ha
yield versus MAP/DAP control, in words (corn [5]; text to Table 52, 2 fl oz on 72 lb P/A MAP or DAP): increased the yield
yield versus base seed treatment package, in words (corn [6]): increased the yield
